Consider five variants from publication PMC10344873 (2023).

First the molecules themselves.
B1: wild type p16-NLuc (mouse p16 tagged with NanoLuc luciferase) [mouse] / 3×Flag-tagged wild type CDK6 [mouse (by the printed Gene ID 12571; not stated in words for CDK6)] (parent complex)
chain 1: MESAADRLARAAAQGRVHDVRALLEAGVSPNAPNSFGRTPIQVMMMGNVHVAALLLNYGADSNCEDPTTFSRPVHDAAREGFLDTLVVLHGSGARLDVRDAWGRLPLDLAQERGHQDIVRYLRSAGCSLCSAGWSLCTAGNVAQTDGHSFSSSTPRALELRGQSQEQS
chain 2: MEKDSLSRADQQYECVAEIGEGAYGKVFKARDLKNGGRFVALKRVRVQTSEEGMPLSTIREVAVLRHLETFEHPNVVRLFDVCTVSRTDRETKLTLVFEHVDQDLTTYLDKVPEPGVPTETIKDMMFQLLRGLDFLHSHRVVHRDLKPQNILVTSSGQIKLADFGLARIYSFQMALTSVVVTLWYRAPEVLLQSSYATPVDLWSVGCIFAEMFRRKPLFRGSSDVDQLGKILDIIGLPGEEDWPRDVALPRQAFHSKSAQPIEKFVTDIDELGKDLLLKCLTFNPAKRISAYGALNHPYFQDLERYKDNLNSHLPSNQSTSELNTA

The first test covers variants of B1. Kind of test: LUMIER assay (Flag IP, on-bead NanoLuc bioluminescence); HEK293T cells, transient expression; n = 6 independent experiments; signals normalised on input; parent: 1; read off a plot.
On to chain 1 P73L, for which the ratio to parent was roughly 0.6. Consider chain 1 G47D, for which the ratio to parent is roughly 0.08. Same read-out and setting: as for chain 1 G15S, the figure is roughly 0.18.

Variants of B1 are the subject of a further test. Described as above. This is another data set of the same source.
Take chain 2 D110H: the ratio to parent is roughly 0.6. Still for that read-out and setting: for chain 2 D102N the value was roughly 0.5.
